# ± gives the uncertainty stated by the source.
# B1: Calcium-binding protein 2, residues 155 to 219; numbered along this chain, Q9NPB3 (parent)
# chain: RELRDAFREFDTNGDGRISVGELRAALKALLGERLSQREVDEILQDVDLNGDGLVDFEEFVRMMS
# Variants of: B1
# Test: abundance fitness (aPCA) (normalised: wild type 0, dead -1); higher = more abundant; growth selection in yeast, the domain comes from the species named
# Conditions: Homo sapiens
row,Variant,abundance fitness
1,RELRDAFREFDTNGDGRIQVGELRAALKALLGERLSQREVDEILQDVDLNGDGLVDFEEFVRMMS [S19Q],-0.584 ± 0.09
2,RELRDAFREFDTNGDGRISVGELRAALKALLGERLSQREVDEILQDVDLNGDGQVDFEEFVRMMS [L54Q],-0.088 ± 0.11
3,RELRDAFREFDTNGDGRISVGELRAALKALLGERLSQREVDEILQDVDLNGDGYVDFEEFVRMMS [L54Y],-0.177 ± 0.12
4,RELRDAFREFETNGDGRISVGELRAALKALLGERLSQREVDEILQDVDLNGDGLVDFEEFVRMMS [D11E],-0.972 ± 0.097
5,RELRDAFREFATNGDGRISVGELRAALKALLGERLSQREVDEILQDVDLNGDGLVDFEEFVRMMS [D11A],-0.677 ± 0.057
6,RELRDAFREFDTNGDGRISVVELRAALKALLGERLSQREVDEILQDVDLNGDGLVDFEEFVRMMS [G21V],-0.061 ± 0.039
7,RELRDAFREFDTNGDGRISSGELRAALKALLGERLSQREVDEILQDVDLNGDGLVDFEEFVRMMS [V20S],-0.164 ± 0.076
8,RELRDAFREFDTNGDGRISVGELRAALKALLGERQSQREVDEILQDVDLNGDGLVDFEEFVRMMS [L35Q],0.043 ± 0.12
9,REMRDAFREFDTNGDGRISVGELRAALKALLGERLSQREVDEILQDVDLNGDGLVDFEEFVRMMS [L3M],0.012 ± 0.068
10,RELRDAFREFDTNGDGRISVGELRAALKALLGERLSQREVDEILQDVDLNGDGLVDFEYFVRMMS [E59Y],-0.157 ± 0.22
11,RELRDAFQEFDTNGDGRISVGELRAALKALLGERLSQREVDEILQDVDLNGDGLVDFEEFVRMMS [R8Q],-0.1 ± 0.087
12,RELRDAFGEFDTNGDGRISVGELRAALKALLGERLSQREVDEILQDVDLNGDGLVDFEEFVRMMS [R8G],-0.238 ± 0.096
13,RELRDAFREFDTNGDGRISVGELRAALKALLGERLSQREYDEILQDVDLNGDGLVDFEEFVRMMS [V40Y],-0.117 ± 0.23
14,RELRDAFREFDTNGDGRISVGELRAALKALLGERLSQREEDEILQDVDLNGDGLVDFEEFVRMMS [V40E],0.169 ± 0.07
15,RELRDAFREFDKNGDGRISVGELRAALKALLGERLSQREVDEILQDVDLNGDGLVDFEEFVRMMS [T12K],-0.03 ± 0.15
16,RELRDAFREFDTNGDGRISVGELRAALKALLRERLSQREVDEILQDVDLNGDGLVDFEEFVRMMS [G32R],-0.258 ± 0.067
17,RELRDAFREFDTNGDGRISVGELRAALKALLSERLSQREVDEILQDVDLNGDGLVDFEEFVRMMS [G32S],-0.453 ± 0.083
18,RELRDRFREFDTNGDGRISVGELRAALKALLGERLSQREVDEILQDVDLNGDGLVDFEEFVRMMS [A6R],0.089 ± 0.044
19,RELRDAFREFDTNGDGRISVGELRAALIALLGERLSQREVDEILQDVDLNGDGLVDFEEFVRMMS [K28I],0.013 ± 0.1
20,RELRSAFREFDTNGDGRISVGELRAALKALLGERLSQREVDEILQDVDLNGDGLVDFEEFVRMMS [D5S],-0.382 ± 0.047
21,RELRDAFREFDTNGDGRISVGELRAALKALLGERLSQREVDEILQDVKLNGDGLVDFEEFVRMMS [D48K],0.152 ± 0.082

row,Variant,abundance fitness
1,RELRDAFREFDTNGDGRISVGELRAALKALLGERLSQREVDEILQDVALNGDGLVDFEEFVRMMS [D48A],0.068 ± 0.098
2,RELRDAFREFDTNGDGRISVGELRAALKALLGERLSQREVGEILQDVDLNGDGLVDFEEFVRMMS [D41G],-0.162 ± 0.087
3,RELRDAFREFDTNGDGRISVGELRAALKALLGERLSQREVIEILQDVDLNGDGLVDFEEFVRMMS [D41I],-0.184 ± 0.15
4,RELRDAFREFDTNGDGRISVGELRAALKALLGEPLSQREVDEILQDVDLNGDGLVDFEEFVRMMS [R34P],0.01 ± 0.12
5,RELRDAFREFDTNGDGRISVGELRAALKALLGEFLSQREVDEILQDVDLNGDGLVDFEEFVRMMS [R34F],-0.298 ± 0.24
6,RELRDAFREFDTNGDGRISVGELRAALKALLGERLLQREVDEILQDVDLNGDGLVDFEEFVRMMS [S36L],0.025 ± 0.054
7,RELRDAFREFDTNEDGRISVGELRAALKALLGERLSQREVDEILQDVDLNGDGLVDFEEFVRMMS [G14E],-0.165 ± 0.14
8,RELRDAFREFDTNGDGRISVGELRAALKALLGERLSQREVDEILQDVDLNGDGLVDFEEFVSMMS [R62S],-0.065 ± 0.06
9,RELRDAFREFDTCGDGRISVGELRAALKALLGERLSQREVDEILQDVDLNGDGLVDFEEFVRMMS [N13C],-0.489 ± 0.26
10,RELRDAFREFDTNGDGRISVGELRAALKALLGERLSQREVDEILQDVDLNGDGLVDFEEFVRMCS [M64C],0.067 ± 0.21
11,RELRDAFREFDTNGDGRISVGELRAALKALLGERLSQREVDEILQDVDLNGDGLVDFEEFVRMWS [M64W],0.104 ± 0.071
12,RELRDAFREFDTNGDGRISVGELRAALKALLGERLSQREVDEILQDVDLNWDGLVDFEEFVRMMS [G51W],-0.301 ± 0.062
13,RELRDAFREFDTNGDGRISVGELRAALKALLGERLSQREVDEILQDVDLNGDGLVDFAEFVRMMS [E58A],-0.077 ± 0.086
14,RELRDAFREFDTNGDGRISVGELRAALKALLGERLSQREVDEILQDVDLNGDGLVDFGEFVRMMS [E58G],-0.003 ± 0.056
15,RELRDAFREFDTNGDGRISVGELRAALKALLGERLSQREVDEILMDVDLNGDGLVDFEEFVRMMS [Q45M],-0.141 ± 0.092
16,RELRDAQREFDTNGDGRISVGELRAALKALLGERLSQREVDEILQDVDLNGDGLVDFEEFVRMMS [F7Q],-0.803 ± 0.13
17,RELRDAFREFDTNGDGRISVGELRMALKALLGERLSQREVDEILQDVDLNGDGLVDFEEFVRMMS [A25M],0.019 ± 0.11
18,RELRDAFREFDTNGDGWISVGELRAALKALLGERLSQREVDEILQDVDLNGDGLVDFEEFVRMMS [R17W],-0.159 ± 0.067
19,RELRDAFREFDTNGDGSISVGELRAALKALLGERLSQREVDEILQDVDLNGDGLVDFEEFVRMMS [R17S],-0.087 ± 0.078
20,RELRDAFREFDTNGDGRISVGELRAALKALLGERLSQREVDEILQDVDLNGDGLVDFEEFVRLMS [M63L],0.101 ± 0.057
21,RELRDAFREFDTNGDGRISVGELRAALKALLGERLSQREVDEILQDVDLNGDGLVDFEEFVREMS [M63E],-0.721 ± 0.46

# From the Human Domainome abundance scans (Beltran et al. 2025)
